Columns and labels:
[1] = system: differentiated HL-60 cells; experiment: Ligand-induced calcium mobilization (Fluo-3 AM) in differentiated HL-60 cells; type: cell-based, Human; conditions: untreated cells, DBP and C5a added simultaneously
[2] = target: T1, DBP immobilized on a Biacore sensor chip (Homo sapiens, UniProt P02774); experiment: Biacore surface plasmon resonance: U937-C5aR cell binding to immobilized DBP
T1 construct: DBP was purified from human plasma; purchased Biodesign International; host or cells: human plasma
T1 sequence (P02774 17-474): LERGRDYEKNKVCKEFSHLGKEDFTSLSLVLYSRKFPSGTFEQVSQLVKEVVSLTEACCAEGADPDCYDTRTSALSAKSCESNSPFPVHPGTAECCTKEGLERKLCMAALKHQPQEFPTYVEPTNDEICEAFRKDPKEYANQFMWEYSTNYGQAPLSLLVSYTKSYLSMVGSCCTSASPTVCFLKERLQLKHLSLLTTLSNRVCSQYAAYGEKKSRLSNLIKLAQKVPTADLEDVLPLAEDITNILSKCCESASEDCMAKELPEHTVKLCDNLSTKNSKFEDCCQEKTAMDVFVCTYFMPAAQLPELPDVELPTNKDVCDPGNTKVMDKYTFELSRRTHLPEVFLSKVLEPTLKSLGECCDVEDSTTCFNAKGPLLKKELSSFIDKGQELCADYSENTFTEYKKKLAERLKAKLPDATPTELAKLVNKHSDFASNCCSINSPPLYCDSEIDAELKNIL
Procedure: FIG. 8A and FIG. 8B show immobilization of DBP on a Biacore surface plasmon resonance sensor chip CM5. Purified DBP in HBSS (5 μM) was coupled to the sensor chip. Coupling was detected using 5 μg/ml affinity-purified anti-DBP (FIG. 8A). Different concentrations of U937-C5aR cells in HBSS were injected into the flow cell and allowed to interact with the immobilized DBP (FIG. 8B). Data is expressed as response units of the molecular interaction on the sensor chip.
FIGS. 9A to 9C show the effect of pretreating U937-C5aR cells with purified DBP or DBP peptides on the binding to DBP immobilized on a Biacore sensor chip. FIG. 9A: 10^6 cells/ml in HBSS were not treated (control), pretreated with 50 nM DBP, 0.5 μM DBP peptide 1 (p1) or DBP peptide 2 (p2). FIG. 9B: DBP peptide 1 immobilized to the Biacore sensor chip. FIG. 9C: DBP peptide 2 immobilized to the Biacore sensor chip. Data is expressed as response units of the molecular interaction on the sensor chip.
U937-C5aR cells (10^6 cells/ml in HBSS) were pretreated with a 25 μg/ml control IgG, 50 nM purified DBP or 25 μg/ml affinity-purified anti-CD44 and then allowed to interact with DBP immobilized on a Biacore sensor chip. Data is expressed as response units of the molecular interaction on the sensor chip.
According to the present invention, the interaction of an immobilized ligand, e.g., immobilized DBP, binding to cells can be measure by any established technology available in the art, e.g., by surface plasmon resonance (SPR) or Biacore technology. For example, in the present invention, the binding of U937-C5aR cells to immobilized DBP were examined by Biacore technology, the result of which is used to further determine if the DBP peptides generated in the present invention can alter the interaction U937-C5aR cells and DBP. […] To investigate further the effect of DBP peptides on cell binding, peptide 1 (FIG. 9B) and peptide 2 (FIG. 9C) were immobilized to Biacore sensor chips. […] Finally, the present invention also identifies that CD44 on the cell surface binds DBP and can, in part, mediate the C5a chemotactic cofactor effect of DBP (McVoy and Kew, J. Immunol. 175:4754, 2005). Therefore, using Biacore technology the present invention addresses the effect of blocking CD44 on U937-C5aR binding to immobilized DBP (FIG. 10). In the present invention, U937-C5aR cells were pretreated with either an irrelevant goat IgG (negative control), purified soluble DBP (positive control) or affinity-purified goat anti-CD44. […] These Biacore experiments have provided a powerful quantitative tool to investigate the cell binding region on DBP and examine the effects on DBP peptides on this interaction.

[3] = system: differentiated HL-60 cells; experiment: Ligand-induced calcium mobilization (Fluo-3 AM) in differentiated HL-60 cells; type: cell-based, Human; conditions: differentiated HL-60 cells incubated 30 min with 50 nM of indicated DBP, then C5a
Procedure: Cells and cell culture: Human promyelocytic cell line HL-60 was obtained from ATCC (Rockville, Md.) and cultured in RPMI 1640 medium supplemented with 10% FBS. Differentiation of HL-60 cells was initiated with 250 μM Bt2cAMP for 48 hours.
Ligand-induced calcium mobilization. Calcium mobilization studies were performed using the Fluo-3 AM probe as described previously (see Merritt, J. E. et al., Biochem. J. 269, 513-519 (1990)). Differentiated HL-60 cells (1×10^7 cells/ml) were resuspended in HBSS-1% BSA containing 2 μM Fluo-3 AM (Molecular Probes, Eugene, Oreg.) and incubated at 37° C. for 40 minutes. Cells incubated without the dye were used as a control to measure autofluorescence (Fmin). Following the dye uptake, cells were washed twice then suspended at 5×10^6 cells/ml in HBSS containing 1% BSA. Half of the cell suspension was treated with 50 nM DBP for 30 min at room temperature, the other half served as the untreated control. For each measurement, 400 μl of cell suspension (with or without DBP) was added to a cuvette and stimulated with various concentrations of purified C5a at room temperature (22-24° C.). Fluorescence was then measured immediately using a Perkin-Elmer LS-5 fluorometer at 505 nm excitation, 526 nm emission for Fluo-3 AM. Fmax was measured by treating labeled cells with 60 μM digitonin. Intracellular free calcium concentrations were calculated using the following formula: (Ca^2+)=Kd (F−Fmin)/(Fmax−F), where Kd=325 nM for Fluo-3 according to manufacturer (Molecular Probes).

B1: DBP: Purified human DBP obtained from Biodesign International (protein)
chain: LERGRDYEKNKVCKEFSHLGKEDFTSLSLVLYSRKFPSGTFEQVSQLVKEVVSLTEACCAEGADPDCYDTRTSALSAKSCESNSPFPVHPGTAECCTKEGLERKLCMAALKHQPQEFPTYVEPTNDEICEAFRKDPKEYANQFMWEYSTNYGQAPLSLLVSYTKSYLSMVGSCCTSASPTVCFLKERLQLKHLSLLTTLSNRVCSQYAAYGEKKSRLSNLIKLAQKVPTADLEDVLPLAEDITNILSKCCESASEDCMAKELPEHTVKLCDNLSTKNSKFEDCCQEKTAMDVFVCTYFMPAAQLPELPDVELPTNKDVCDPGNTKVMDKYTFELSRRTHLPEVFLSKVLEPTLKSLGECCDVEDSTTCFNAKGPLLKKELSSFIDKGQELCADYSENTFTEYKKKLAERLKAKLPDATPTELAKLVNKHSDFASNCCSINSPPLYCDSEIDAELKNIL
calcium influx in response to C5a [1]: did not show augmented calcium influx | inhibition of U937-C5aR cell binding to the DBP chip ([2]; FIG. 9A, 10^6 cells/ml pretreated with 50 nM DBP or 0.5 μM DBP peptide): almost completely blocked | inhibition of U937-C5aR binding to immobilized DBP ([2]; FIG. 10, cells pretreated with 50 nM purified DBP or 25 μg/ml anti-CD44): completely blocks binding | enhancement of intracellular Ca2+ flux in response to C5a [3]: significantly enhanced intracellular calcium influx | enhancement of intracellular Ca2+ flux in response to C5a ([3]; listed as natural DBP): significantly enhanced
